Data as given in patent publication US20230288413A1.

Key:
[1] = target: anti-S1 fragment of SARS-CoV-2's spike protein antibody; assay: lateral flow dipstick; capture antibody trapped in 5% acrylamide hydrogel; S1-coated gold nanoparticles as reporter (FIG. 3, panel b)
[2] = target: anti-S1 fragment of SARS-CoV-2's spike protein antibody; assay: lateral flow dipstick; capture antibody immobilized by physical adsorption; S1-coated gold nanoparticles as reporter (FIG. 3, panel a)
[3] = target: anti-S1 fragment of SARS-CoV-2's spike protein antibody; assay: lateral flow dipstick; separate experiment with improved hydrogel and streptavidin; S1-coated gold nanoparticles as reporter (FIG. 3, panel d)
[4] = target: anti-S1 fragment of SARS-CoV-2's spike protein antibody; assay: lateral flow dipstick; capture antibody held by streptavidin trapped in the hydrogel; S1-coated gold nanoparticles as reporter (FIG. 3, panel c)

limit of detection [1]: 1 ng
limit of detection [2]: 10 ng
limit of detection [3]: 0.05 ng
limit of detection [4]: 0.1 ng
Substance: biotin-SP-conjugated anti-human IgG Fc (antibody)
